# Experimental data published in patent US20250215091A1, “Anti-GAL3 Antibodies and Compositions” (Les Laboratoires Servier, priority 2022, published 2025).
# Tests used:
# [1] = target: T1, human full-length Galectin-1 (human, UniProt P09382 2-135); experiment: ELISA on His-tag-immobilised antigen (3 µg/mL), periplasmic extract with scFv, anti-scFvTag.HRP, OD 450 nm
# T1 construct: full-length; Histidine-tagged; also called Hu-Gall; Gall
# Protocol: (§1) Hu-Gal3-FL, Hu-Gal3-CRD, m-Gal3-FL, Hu-Gall and Hu-Gal7 were immobilized at 3 μg/mL final concentration through their histidine tag on functionalized microplates following internal process. Periplasmic extracts containing scFvs were added into the wells and detected with an anti-scFvTag.HRP (horseradish peroxidase) antibody. Rabbit antibodies directed against Gal3 (ab53082-abcam reference), Gall (ab25138-abcam reference), and Gal7 (ab108623-abcam reference) were used at 5 μg/mL as antigen-coating positive controls and detected with an anti-rabbit.HRP secondary antibody (7074S-Cell Signaling reference).
# [2] = target: T2, human full-length Galectin-7 (human, UniProt P47929 1-136); experiment: as above
# T2 construct: full-length; Histidine-tagged; also called Hu-Gal7; Gal7
# T2 sequence (P47929 whole entry): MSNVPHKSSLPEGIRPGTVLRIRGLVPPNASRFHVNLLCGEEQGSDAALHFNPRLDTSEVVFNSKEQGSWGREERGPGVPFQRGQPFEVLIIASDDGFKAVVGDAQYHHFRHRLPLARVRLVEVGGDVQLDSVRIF
# Protocol: as §1
# [3] = target: T3, full length human Galectin-3 (human, UniProt P17931 2-250); experiment: SPR Biacore T-200, antibody captured by anti-human Fc, Gal3 in solution
# T3 construct: Printed as 'full length'; recombinant, immobilized through a histidine tag; also called hu-Gal3-FL; Hu-Gal3-FL
# T3 sequence (P17931 2-250 limits assumed): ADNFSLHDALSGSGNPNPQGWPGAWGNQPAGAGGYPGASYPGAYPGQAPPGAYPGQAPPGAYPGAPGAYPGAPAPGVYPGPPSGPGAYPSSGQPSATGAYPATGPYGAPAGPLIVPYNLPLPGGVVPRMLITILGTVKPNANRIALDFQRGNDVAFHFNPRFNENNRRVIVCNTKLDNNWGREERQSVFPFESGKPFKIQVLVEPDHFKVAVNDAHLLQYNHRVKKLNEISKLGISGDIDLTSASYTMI
# Protocol: The CM5 sensor surface was first immobilized with an anti-human Fc mAb using a standard protocol. The entire sensor surface was first activated by injecting a 1:1 (v/v) mixture of 400 mM EDC and 100 mM NHS at a flow rate of 10 μL/minute for 7 minutes. Monoclonal anti-human Fc antibody (Millipore AP113), 25 μg/mL in Na acetate pH5, 360 s were flowed at 10 μL/minute to reach 10000 RU on both flow cells followed by the injection of 1 M ethanolamine, pH8.5 for 7 minutes at a flow rate of 10 μL/minute. During the entire immobilization procedure, HBS-P was used as the running buffer.
# Antibody samples were prepared at 5 μg/ml and were injected for 30 seconds at 10 μL/minute. In general, 400 to 680 resonance units of antibodies were captured on the chip.
# T1 sequence (P09382 2-135 limits assumed): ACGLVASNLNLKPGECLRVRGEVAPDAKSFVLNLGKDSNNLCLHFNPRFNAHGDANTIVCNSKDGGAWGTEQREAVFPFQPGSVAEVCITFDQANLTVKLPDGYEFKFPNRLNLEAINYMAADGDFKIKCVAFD
Binder,binding result [1],binding result [2],Kd [3]
"anti-Gal3 scFv G03 (scFv, V domains shown, not shown: small tags and cut ends, Periplasmic extract from E. coli; also called G03 (scFv)) VH: EVQLVESGGSLVKPGGSLRLSCAASGFTFSNYAMNWVRQAPGKGLEWISSIYGSSRYIYYADFVKGRFTISRDNAKNSLYLQMNSLRAEDTAVYYCVRSYNGGMDVWGRGTLVTVSS VL: QSVLTQPASVSGSPGQSITISCAGTSSDVGGYYNVAWYQQHPGKAPKLMIYYDSYRPSGVSNRFSGSKSGNTASLTISGLQAEDEADYYCSSSTGYSTRVFGGGTKLEIK",no binding,no binding,
"anti-Gal3 scFv H10 (scFv, V domains shown, not shown: small tags and cut ends, Periplasmic extract from E. coli; also called H10 (scFv)) VH: EVQLVESGGSLVKPGGSLRLSCAASGFTFSNYYMNWVRQAPGKGLEWISYINGASRDISYADFVKGRFTISRDNAKNSLYLQMNSLRAEDTAVYYCVRSSYGYSNYGSGMDVWGRGTLVTVSS VL: QSVLTQPASVSGSPGQSITISCAGTSSDVGGSYNVAWYQQHPGKAPKLMIYNDANRPSGVSNRFSGSKSGNTASLTISGLQAEDEADYYCSSNTADSTRVFGGGTKLEIK",no binding,no binding,
"anti-Gal3 scFv E01 (scFv, V domains shown, not shown: small tags and cut ends, Periplasmic extract from E. coli; also called E01 (scFv)) VH: EVQLVESGGSLVKPGGSLRLSCAASGFTFSNNYMNWVRQAPGKGLEWISNINGASRNIAYADFVKGRFTISRDNAKNSLYLQMNSLRAEDTAVYYCVRSSDYDGGMDVWGRGTLVTVSS VL: QSVLTQPASVSGSPGQSITISCAGTSSDVGGNSYVSWYQQHPGKAPKLMIYYDSYRPSGVSNRFSGSKSGNTASLTISGLQAEDEADYYCSSSTYGSTRVFGGGTKLEIK",no binding,no binding,
"anti-Gal3 scFv D11 (scFv, V domains shown, not shown: small tags and cut ends, Periplasmic extract from E. coli; also called D11 (scFv)) VH: EVQLVESGGSLVKPGGSLRLSCAASGFTFSNYNMNWVRQAPGKGLEWISSIYGSSRYIYYADFVKGRFTISRDNAKNSLYLQMNSLRAEDTAVYYCVRSSYGGMDVWGRGTLVTVSS VL: QSVLTQPASVSGSPGQSITISCAGTSSDVGGSYNVAWYQQHPGKAPKLMIYYDSYRPSGVSNRFSGSKSGNTASLTISGLQAEDEADYYCSSYTGYSTRVFGGGTKLEIK",no binding,no binding,
"anti-Gal3 variant antibody E07-G2 (antibody, V domains shown, Variant of E07 with framework mutations to germline; captured by anti-human Fc in SPR) VH: EVQLVESGGGLVKPGGSLRLSCAASGFTFSNYNMNWVRQAPGKGLEWVSNIYGSSRYIYYADSVKGRFTISRDNAKNSLYLQMNSLRAEDTAVYYCVRSYYGGMDVWGRGTLVTVSS VL: QSALTQPRSVSGSPGQSVTISCTGTSSDVGGYYSVSWYQQHPGKAPKLMIYYDSNRPSGVPDRFSGSKSGNTASLTISGLQAEDEADYYCSSYTGYSTRVFGQGTKLEIK",,,15 nM
"anti-Gal3 scFv B12 (scFv, V domains shown, not shown: small tags and cut ends, Periplasmic extract from E. coli; also called B12 (scFv)) VH: EVQLVESGGSLVKPGGSLRLSCAASGFTFSNDDMNWVRQAPGKGLEWISSIDGSSRSIYYADFVKGRFTISRDNAKNSLYLQMNSLRAEDTAVYYCVRSSGYSGGGMDVWGRGTLVTVSS VL: QSVLTQPASVSGSPGQSITISCAGTSSDVGGSYNVAWYQQHPGKAPKLMIYSDSYRPSGVSNRFSGSKSGNTASLTISGLQAEDEADYYCSSYTSNSARVFGGGTKLEIK",no binding,no binding,
"anti-Gal3 variant antibody E07-G1 (antibody, V domains shown, Variant of E07 with framework mutations to germline; captured by anti-human Fc in SPR) VH: EVQLVESGGGLVKPGGSLRLSCAASGFTFSNYNMNWVRQAPGKGLEWISNIYGSSRYIYYADSVKGRFTISRDNAKNSLYLQMNSLRAEDTAVYYCVRSYYGGMDVWGRGTLVTVSS VL: QSALTQPRSVSGSPGQSVTISCTGTSSDVGGYYSVSWYQQHPGKAPKLMIYYDSNRPSGVPDRFSGSKSGNTASLTISGLQAEDEADYYCSSYTGYSTRVFGQGTKLEIK",,,12 nM
"anti-Gal3 variant antibody D06-G2 (antibody, V domains shown, Variant of D06 with framework mutations to germline; captured by anti-human Fc in SPR) VH: EVQLVESGGGLVKPGGSLRLSCAASGFTFSNYNMNWVRQAPGKGLEWVSSIYGSSRYIYYADSVKGRFTISRDNAKNSLYLQMNSLRAEDTAVYYCVRSGYGGMDVWGRGTLVTVSS VL: QSALTQPASVSGSPGQSITISCTGTSSDVGGYNGVSWYQQHPGKAPKLMIYYDSYRPSGVSNRFSGSKSGNTASLTISGLQAEDEADYYCSSGTDYSTRVFGQGTKLEIK",,,6.8 nM
"anti-Gal3 scFv E02 (scFv, V domains shown, not shown: small tags and cut ends, Periplasmic extract from E. coli; also called E02 (scFv)) VH: EVQLVESGGSLVKPGGSLRLSCAASGFTFSNYAMNWVRQAPGKGLEWISSIYGSSRSISYADFVKGRFTISRDNAKNSLYLQMNSLRAEDTAVYYCVRSSYNYYYGNGMDVWGRGTLVTVSS VL: QSVLTQPASVSGSPGQSITISCAGTSSDVGGYGGVSWYQQHPGKAPKLMIYYDSYRPSGVSNRFSGSKSGNTASLTISGLQAEDEADYYCSSSTSYSTRVFGGGTKLEIK",no binding,no binding,
"anti-Gal3 variant antibody D11-G2 (antibody, V domains shown, Variant of D11 with framework mutations to germline; captured by anti-human Fc in SPR) VH: EVQLVESGGGLVKPGGSLRLSCAASGFTFSNYNMNWVRQAPGKGLEWVSSIYGSSRYIYYADSVKGRFTISRDNAKNSLYLQMNSLRAEDTAVYYCVRSSYGGMDVWGRGTLVTVSS VL: QSALTQPASVSGSPGQSITISCTGTSSDVGGSYNVAWYQQHPGKAPKLMIYYDSYRPSGVSNRFSGSKSGNTASLTISGLQAEDEADYYCSSYTGYSTRVFGGGTKLEIK",,,18 nM
"anti-Gal3 scFv E07 (scFv, V domains shown, not shown: small tags and cut ends, Periplasmic extract from E. coli; also called E07 (scFv)) VH: EVQLVESGGSLVKPGGSLRLSCAASGFTFSNYNMNWVRQAPGKGLEWISNIYGSSRYIYYADFVKGRFTISRDNAKNSLYLQMNSLRAEDTAVYYCVRSYYGGMDVWGRGTLVTVSS VL: QSVLTQPASVSGSPGQSITISCAGTSSDVGGYYSVSWYQQHPGKAPKLMIYYDSNRPSGVSNRFSGSKSGNTASLTISGLQAEDEADYYCSSYTGYSTRVFGGGTKLEIK",no binding,no binding,
"anti-Gal3 scFv E12 (scFv, V domains shown, not shown: small tags and cut ends, Periplasmic extract from E. coli; also called E12 (scFv)) VH: EVQLVESGGSLVKPGGSLRLSCAASGFTFSNYAMNWVRQAPGKGLEWISSIYGSSRSIYYADFVKGRFTISRDNAKNSLYLQMNSLRAEDTAVYYCVRSNNAGMDVWGRGTLVTVSS VL: QSVLTQPASVSGSPGQSITISCAGTSSDVGGYYDVSWYQQHPGKAPKLMIYYDSYRPSGVSNRFSGSKSGNTASLTISGLQAEDEADYYCSSYTSYSTRVFGGGTKLEIK",no binding,no binding,
"anti-Gal3 scFv D06 (scFv, V domains shown, not shown: small tags and cut ends, Periplasmic extract from E. coli HB2151 (pHEN phagemid); also called D06 (scFv)) VH: EVQLVESGGSLVKPGGSLRLSCAASGFTFSNYNMNWVRQAPGKGLEWISSIYGSSRYIYYADFVKGRFTISRDNAKNSLYLQMNSLRAEDTAVYYCVRSGYGGMDVWGRGTLVTVSS VL: QSVLTQPASVSGSPGQSITISCAGTSSDVGGYNGVSWYQQHPGKAPKLMIYYDSYRPSGVSNRFSGSKSGNTASLTISGLQAEDEADYYCSSGTDYSTRVFGGGTKLEIK",no binding,no binding,
"anti-Gal3 variant antibody D06-G1 (antibody, V domains shown, Variant of D06 with framework mutations to germline; captured by anti-human Fc in SPR) VH: EVQLVESGGGLVKPGGSLRLSCAASGFTFSNYNMNWVRQAPGKGLEWISSIYGSSRYIYYADSVKGRFTISRDNAKNSLYLQMNSLRAEDTAVYYCVRSGYGGMDVWGRGTLVTVSS VL: QSALTQPASVSGSPGQSITISCTGTSSDVGGYNGVSWYQQHPGKAPKLMIYYDSYRPSGVSNRFSGSKSGNTASLTISGLQAEDEADYYCSSGTDYSTRVFGQGTKLEIK",,,9.6 nM
"anti-Gal3 scFv H07 (scFv, V domains shown, not shown: small tags and cut ends, Periplasmic extract from E. coli; also called H07 (scFv)) VH: EVQLVESGGSLVKPGGSLRLSCAASGFTFSNYNMNWVRQAPGKGLEWISNIDGSSRYIYYADFVKGRFTISRDNAKNSLYLQMNSLRAEDTAVYYCVRSYYGGMDVWGRGTLVTVSS VL: QSVLTQPASVSGSPGQSITISCAGTSSDVGGYYNVAWYQQHPGKAPKLMIYYDSYRPSGVSNRFSGSKSGNTASLTISGLQAEDEADYYCSSSTGYSTRVFGGGTKLEIK",no binding,no binding,
"anti-Gal3 variant antibody D11-G1 (antibody, V domains shown, Variant of D11 with framework mutations to germline; captured by anti-human Fc in SPR) VH: EVQLVESGGGLVKPGGSLRLSCAASGFTFSNYNMNWVRQAPGKGLEWISSIYGSSRYIYYADSVKGRFTISRDNAKNSLYLQMNSLRAEDTAVYYCVRSSYGGMDVWGRGTLVTVSS VL: QSALTQPASVSGSPGQSITISCTGTSSDVGGSYNVAWYQQHPGKAPKLMIYYDSYRPSGVSNRFSGSKSGNTASLTISGLQAEDEADYYCSSYTGYSTRVFGGGTKLEIK",,,15 nM
